Patent publication US20170087188A1, “WNT INDUCED MOTILITY AND ENHANCED ENGRAFTMENT OF CELLS” (OTTAWA HOSPITAL RESEARCH INSTITUTE, priority 2014, published 2017)
“Also recorded” adds a separate entry of the source.

Columns and labels:
[1] = tested on: β-catenin signaling; assay: TOP-flash luciferase reporter assay in C2C12 cells; format: cell-based; conditions: different concentrations
Protocol: Different concentrations of Wnt7a were tested to exclude a dose dependent effect on β-catenin signaling, as measured by induction of TOP-flash activity in C2C12 cells.
The UBC-Fzd7-Flag (Fzd7-Flag), CMV-Fzd7-EYFP (Fzd7-YFP), CMV-Fzd3-EYFP (Fzd3-YFP), CMV-EYFP (YFP), CMV-EGFP-Rac1-wt (GFP-Rac1, 12980, Addgene), CMV-EGFP-Rac1-T17N (Rac1-DN, 12982, Addgene), CMV-EGFP-RhoA-T19N (RhoA-DN, 12967, Addgene) and CMV-EGFP-Cdc42-T17N (Cdc42-DN, 12976, Addgene) constructs have been described previously (Bentzinger et al., 2013a; Subauste et al., 2000; von Maltzahn et al., 2011). The Fzd7-tdtomato plasmid was generated by replacing the C-terminal YFP in Fzd7-YFP with tdTomato. For TOP-flash and FOP-flash the TCF reporter plasmid kit (17-285, Millipore) was used with the dual-luciferase reporter assay system (E1960, Promega). For normalization pGL4.74[hRluc/TK] (E6921, Promega) was cotransfected. For TOP-flash and FOP-flash assays the cells were transfected with GenJet lipofection reagent (SL100499, SignaGen). Otherwise, Lipofectamine 2000 (11668019, Life Technologies) was used for transfections.

[2] = tested on: C2C12 cells; assay: Morphological quantification of triangular polarized C2C12 cells; format: cell-based
Text: Cell migration is typically accompanied by cytoskeletal polarization leading to a distinctive triangular cell shape.
Fzd7-YFP was expressed in myogenic cells and induced polarization by 130% (FIG. 1A and FIG. 9A). […] The majority of Fzd7-YFP localized to small intracellular vesicles associated with the tubulin cytoskeleton in C2C12 cells (FIG. 1B). By contrast, no such localization could be observed for YFP alone (FIG. 9B).
For myoblast culture, satellite cells were FACS purified as described (Bentzinger et al., 2013c) and plated on Collagen-coated dishes (BD Biosciences) in Ham's F10 medium supplemented with 20% FBS and 5 ng/mL of basic FGF (Millipore). C2C12 cells and human myoblasts were cultured as previously described (von Maltzahn et al., 2012). For in vitro morphology quantifications, Wnt7a was used at a concentration of 50 ng/mL.

[3] = tested on: mouse primary myoblasts; assay: Scratch migration assay, mouse primary myoblasts; format: cell-based
Protocol: Cellular polarization is indicative of increased motility (de Forges et al., 2012). Scratch assays were used to test whether Wnt7a and Fzd7 polarization affect cell motility. To exclude effects on the localization of cells arising from altered rates of proliferation, cells were treated with Mitomycin-C.
Fzd7 deficient cells migrated 59% less compared to heterozygous myoblasts and expression of Fzd7-Flag in Fzd7 knockout myoblasts restored migration to normal levels (FIG. 2D). […] To investigate whether the stimulation of myoblast migration is dose dependent, different concentrations of Wnt7a and Wnt3a were tested for their effect on migration.
(§1) Following plasmid transfection or application of Wnts (R&D Systems), the cells were treated with Mitomycin-C for 2 h (50 μg/mL). Subsequently, the monolayer of cells was scraped in a straight line. The plates were then extensively washed with culture medium and incubated for 24 h before analysis. Analysis was performed using DAPI staining after matching the reference points and enumeration of DAPI-stained nuclei in the scar was performed. Unless otherwise indicated, Wnt7a and Wnt3a were used at a concentration of 100 ng/mL in scratch assays. Monodansylcadaverine (MDC, 30432, Sigma) was used in scratch assays at a concentration of 50 μm.

[4] = tested on: mdx mice; assay: Transplantation of Wnt-treated satellite cells into TA of mdx mice; format: in vivo, mouse
Protocol: It is known that poor migration of myogenic cells upon intramuscular injection is a major hurdle for the development of cell based therapies for muscular dystrophy (Skuk et al., 2007). The present inventors tested whether satellite cells treated with Wnt7a ex vivo prior to transplantation would enhance engraftment. 10,000 satellite cells were isolated from Pax7-zsGreen mice by fluorescent activated cell sorting (Bosnakovski et al., 2008), treated with Wnt7a for 3 h; washed extensively; and transplanted into the TA of immunosuppressed dystrophin-deficient mdx mice that were injured with cardiotoxin 2 days before the procedure (FIG. 6A).
Transplantation of zsGreen-expressing satellite cells or myoblasts into mdx mice was performed as previously described (Bentzinger et al., 2013c). Before transplantation the cells were treated for 3 h with Wnt7a, Wnt5a, or Wnt3a (R&D Systems) at a concentration of 50 ng/mL for freshly isolated satellite cells or with 100 ng/mL for cultured cells. Myoblasts expressing tdTomato were transplanted into uninjured muscles of C57BL/6 mice that were implanted with an osmotic pump (Alzet) delivering FK506 (Sigma) at 2.5 mg/kg/day 3 days prior to the transplantations. In some experiments, the injection site was marked with blue fluorescent microspheres (2 μm, Life Technologies) that were added at a concentration of 1:100 (vol/vol) to the cell suspension. 10 μl of the cell-microsphere suspension was injected into the TA of each mouse using a Hamilton syringe.
Muscles frozen in liquid nitrogen were cut into 12 μm cross-sections. Cross-sections and cells were either fixed with ethanol (100%) or 2% PFA for 5 min, permeabilized with 0.1% Triton/0.1 M glycine/PBS for 10 min, blocked with 5% horse serum in PBS for several hours, and incubated with specific primary antibody in blocking buffer overnight at 4° C. Samples were subsequently washed with PBS and stained with appropriate fluorescently labeled secondary antibodies for 1 h at room temperature. After washing with PBS, samples were mounted with Permafluor (Fisher). Antibodies were as follows: chicken anti-GFP (Abcam, ab13970), mouse anti-Pax7 (DSHB), mouse anti-Dystrophin (7A10, DSHB), mouse anti-Rac1 (05-389, Millipore), mouse anti-Tubulin (Sigma, T9026), rabbit anti-Dvl2 (3224, Cell Signaling), rabbit anti-zsGreen (Clontech, 632474), rabbit anti-Laminin (Sigma, L9393), rabbit anti-HA (Millipore, 07-221).

[5] = tested on: human primary myoblasts; assay: Scratch migration assay, human primary myoblasts; format: cell-based
Protocol: The translational relevance of Wnt7a treatment was examined in human primary myoblasts.
as §1

B1: Wnt7a: non-canonical Wnt polypeptide (R&D Systems) used to treat or load myogenic cells (protein, UniProt O00755 32-349, looked up)
Protein Wnt-7a: LGASIICNKIPGLAPRQRAICQSRPDAIIVIGEGSQMGLDECQFQFRNGRWNCSALGERTVFGKELKVGSREAAFTYAIIAAGVAHAITAACTQGNLSDCGCDKEKQGQYHRDEGWKWGGCSADIRYGIGFAKVFVDAREIKQNARTLMNLHNNEAGRKILEENMKLECKCHGVSGSCTTKTCWTTLPQFRELGYVLKDKYNEAVHVEPVRASRNKRPTFLKIKKPLSYRKPMDTDLVYIEKSPNYCEEDPVTGSVGTQGRACNKTAPQASGCDLMCCGRGYNTHQYARVWQCNCKFHWCCYVKCNTCSERTEMYTCK
TOP-flash reporter activity [1]: does not activate the TOP-flash reporter at any tested concentration; also recorded: did not increase TOP-flash reporter activity | increase in the abundance of triangular polarized cells ([2]; C2C12 myoblasts, vs vehicle treated cells expressing YFP, Wnt7a 50 ng/mL): 111% | increase in cell polarization ([2]; Fzd7-YFP expressing C2C12 cells treated with Wnt7a): 167% | dose dependency of myoblast migration ([3]; different concentrations tested, mouse primary myoblasts): relatively linear increases in cell migration | response of cell migration to Wnt7a in Fzd7 knockout myoblasts ([3]; primary myoblasts from Fzd7−/− mice): do not respond; also recorded: no reaction | increase in cell migration ([3]; satellite cell derived mouse primary myoblasts, Wnt 100 ng/mL, vs Veh. or empty vector): 136% | enhanced engraftment of zsGreen-expressing cells ([4]; 10,000 satellite cells treated 3 h (50 ng/mL), mdx TA, after 3 weeks, vs Veh.): 69% | numbers of endogenous satellite cells ([4]; Pax7+/zsGreen− cells in host mdx muscle, vs Veh.): not significantly changed; also recorded: not altered | hypertrophy of dystrophin-expressing myofibers (minimal feret) ([4]; myofibers fused with Wnt7a treated satellite cells, mdx TA): 116% | proportion of zsGreen+ engrafted cells that express Ki67 ([4]; satellite cells into mdx TA, vs Veh.): do not show more Ki67 staining; also recorded: did not alter | maximal distance between clusters of dystrophin-expressing myofibers ([4]; satellite cells treated 3 h, mdx TA, average): 3.7 mm | increase in number of myofibers expressing dystrophin ([4]; satellite cells treated 3 h, mdx TA, vs Veh.): 486% | human myoblast migration [5]: significantly increases cell migration; also recorded: significantly increased human myoblast migration
